What was measured:
[1] = molecular target: GST-fused human V158 FcγRIIIa (extracellular region) (human) (UniProt P08637); assay: SPR, GST-FcγRIIIa V158 on chip
[2] = molecular target: GST-fused human V158 FcγRIIIa (extracellular region) (human) (UniProt P08637); assay: AlphaScreen competition with biotinylated WT AC10

Chain of GST-fused human V158 FcγRIIIa (extracellular region) (human) (P08637 17-208 F176V): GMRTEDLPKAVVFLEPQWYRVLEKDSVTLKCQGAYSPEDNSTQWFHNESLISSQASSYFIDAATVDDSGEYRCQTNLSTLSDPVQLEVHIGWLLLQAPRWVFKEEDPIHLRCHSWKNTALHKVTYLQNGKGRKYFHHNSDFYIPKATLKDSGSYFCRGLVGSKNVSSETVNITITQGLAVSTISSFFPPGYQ

For WT AC10 antibody (L0/H0), the Kd [1] was 18.6 nM and the IC50 [2] was 87.2 nM.
